B1: Transcription factor MYB75 (Arabidopsis thaliana (Mouse-ear cress)), Q9FE25 (parent)
chain: MEGSSKGLRKGAWTTEEDSLLRQCINKYGEGKWHQVPVRAGLNRCRKSCRLRWLNYLKPSIKRGKLSSDEVDLLLRLHRLLGNRWSLIAGRLPGRTANDVKNYWNTHLSKKHEPCCKIKMKKRDITPIPTTPALKNNVYKPRPRSFTVNNDCNHLNAPPKVDVNPPCLGLNINNVCDNSIIYNKDKKKDQLVNNLIDGDNMWLEKFLEESQEVDILVPEATTTEKGDTLAFDVDQLWSLFDGETVKFD
partner: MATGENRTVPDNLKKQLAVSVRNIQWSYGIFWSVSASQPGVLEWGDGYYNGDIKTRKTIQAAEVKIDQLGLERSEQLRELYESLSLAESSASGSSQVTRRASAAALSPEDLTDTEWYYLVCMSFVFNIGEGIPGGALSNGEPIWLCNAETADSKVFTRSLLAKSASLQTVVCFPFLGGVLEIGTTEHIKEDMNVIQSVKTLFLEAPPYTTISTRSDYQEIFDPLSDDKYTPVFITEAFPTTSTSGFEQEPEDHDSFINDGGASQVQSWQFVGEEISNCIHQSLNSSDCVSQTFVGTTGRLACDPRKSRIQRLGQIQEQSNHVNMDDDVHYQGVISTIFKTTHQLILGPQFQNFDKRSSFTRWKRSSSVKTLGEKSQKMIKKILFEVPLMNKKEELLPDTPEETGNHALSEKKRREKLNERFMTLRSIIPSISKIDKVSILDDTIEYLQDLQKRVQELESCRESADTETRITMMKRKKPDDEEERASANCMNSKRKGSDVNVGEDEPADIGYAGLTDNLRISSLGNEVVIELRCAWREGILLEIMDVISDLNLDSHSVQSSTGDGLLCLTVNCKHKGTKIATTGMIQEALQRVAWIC

Variants of: B1
Details: with egl1_arath BHLH2, Q9CAD0

Effect of a mutation on the interaction, decreasing interaction:
MEGSSKGLRKGAWTTEEDSLLRQCINKYGEGKWHQVPVRAGLNRCRKSCRLRWLNYLKPSIKRGKLSSDEVDLLLRLHRLLGNRWSLIAGALPGRTANDVKNYWNTHLSKKHEPCCKIKMKKRDITPIPTTPALKNNVYKPRPRSFTVNNDCNHLNAPPKVDVNPPCLGLNINNVCDNSIIYNKDKKKDQLVNNLIDGDNMWLEKFLEESQEVDILVPEATTTEKGDTLAFDVDQLWSLFDGETVKFD [R91A]
MEGSSKGLRKGAWTTEEDSLLRQCINKYGEGKWHQVPVRAGLNRCRKSCRLRWLNYLKPSIKRGKLSSDEVDLLLRLHRLLGNRWSLIAGDLPGRTANDVKNYWNTHLSKKHEPCCKIKMKKRDITPIPTTPALKNNVYKPRPRSFTVNNDCNHLNAPPKVDVNPPCLGLNINNVCDNSIIYNKDKKKDQLVNNLIDGDNMWLEKFLEESQEVDILVPEATTTEKGDTLAFDVDQLWSLFDGETVKFD [R91D]
MEGSSKGLRKGAWTTEEDSLLRQCINKYGEGKWHQVPVRAGLNRCRKSCRLRWLNYLKPSIKRGKLSSDEVDLLLKLHRLLGNRWSLIAGRLPGRTANDVKNYWNTHLSKKHEPCCKIKMKKRDITPIPTTPALKNNVYKPRPRSFTVNNDCNHLNAPPKVDVNPPCLGLNINNVCDNSIIYNKDKKKDQLVNNLIDGDNMWLEKFLEESQEVDILVPEATTTEKGDTLAFDVDQLWSLFDGETVKFD [R76K]
MEGSSKGLRKGAWTTEEDSLLRQCINKYGEGKWHQVPVRAGLNRCRKSCRLRWLNYLKPSIKRGKLSSDEVDLLLELHRLLGNRWSLIAGRLPGRTANDVKNYWNTHLSKKHEPCCKIKMKKRDITPIPTTPALKNNVYKPRPRSFTVNNDCNHLNAPPKVDVNPPCLGLNINNVCDNSIIYNKDKKKDQLVNNLIDGDNMWLEKFLEESQEVDILVPEATTTEKGDTLAFDVDQLWSLFDGETVKFD [R76E]
MEGSSKGLRKGAWTTEEDSLLRQCINKYGEGKWHQVPVRAGLNRCRKSCRLRWLNYLKPSIKRGKLSSDEVDLLLRLHSLLGNRWSLIAGRLPGRTANDVKNYWNTHLSKKHEPCCKIKMKKRDITPIPTTPALKNNVYKPRPRSFTVNNDCNHLNAPPKVDVNPPCLGLNINNVCDNSIIYNKDKKKDQLVNNLIDGDNMWLEKFLEESQEVDILVPEATTTEKGDTLAFDVDQLWSLFDGETVKFD [R79S]
MEGSSKGLRKGAWTTEEDSLLRQCINKYGEGKWHQVPVRAGLNRCRKSCRLRWLNYLKPSIKRGKLSSDEVDILLRLHRLLGNRWSLIAGRLPGRTANDVKNYWNTHLSKKHEPCCKIKMKKRDITPIPTTPALKNNVYKPRPRSFTVNNDCNHLNAPPKVDVNPPCLGLNINNVCDNSIIYNKDKKKDQLVNNLIDGDNMWLEKFLEESQEVDILVPEATTTEKGDTLAFDVDQLWSLFDGETVKFD [L73I]
MEGSSKGLRKGAWTTEEDSLLRQCINKYGEGKWHQVPVRAGLNRCRKSCRLRWLNYLKPSIKRGKLSSDEVDLLLRLHRALGNRWSLIAGRLPGRTANDVKNYWNTHLSKKHEPCCKIKMKKRDITPIPTTPALKNNVYKPRPRSFTVNNDCNHLNAPPKVDVNPPCLGLNINNVCDNSIIYNKDKKKDQLVNNLIDGDNMWLEKFLEESQEVDILVPEATTTEKGDTLAFDVDQLWSLFDGETVKFD [L80A]
